Results from article PMC9485235, “Structural insights into cyanobacterial RuBisCO assembly coordinated by two chaperones Raf1 and RbcX” (Cell Discovery, 2022).

B1: RuBisCO large subunit RbcL from Anabaena sp. PCC 7120 (His-RbcL) (natural protein, UniProt P00879 1-476, looked up)
chain: MSYAQTKTQTKSGYKAGVQDYRLTYYTPDYTPKDTDILAAFRVTPQPGVPFEEAAAAVAAESSTGTWTTVWTDLLTDLDRYKGRCYDIEPVPGEDNQFIAYIAYPLDLFEEGSITNVLTSIVGNVFGFKALRALRLEDIRFPVAYIKTFQGPPHGIQVERDKLNKYGRPLLGCTIKPKLGLSAKNYGRAVYECLRGGLDFTKDDENINSAPFQRWRDRFLFVADAITKAQAETGEIKGHYLNVTAPTCEEMLKRAEYAKELKQPIIMHDYLTAGFTANTTLARWCRDNGVLLHIHRAMHAVIDRQKNHGIHFRVLAKALRLSGGDHIHTGTVVGKLEGERGITMGFVDLLRENYVEQDKSRGIYFTQDWASLPGVMAVASGGIHVWHMPALVEIFGDDSVLQFGGGTLGHPWGNAPGATANRVALEACVQARNEGRNLAREGNDVIREAAKWSPELAVACELWKEIKFEFEAMDTV
notes: RbcL, ribulose-1,5-bisphosphate carboxylase/oxygenase large subunit, Anabaena sp; coding region amplified from genomic DNA; plasmid pET19-His-RbcL; also called RbcL8 core; source: E. coli BL21 (DE3), co-expressed with GroEL-GroES and chaperones, purified (Ni-NTA, gel filtration); also in lysate (holoenzyme co-purification)
B2: Recombinant Anabaena sp. PCC 7120 Flag-RbcS (RuBisCO small subunit) (natural protein, UniProt P06514 1-109, looked up)
chain: MQTLPKERRYETLSYLPPLTDVQIEKQVQYILSQGYIPAVEFNEVSEPTELYWTLWKLPLFGAKTSREVLAEVQSCRSQYPGHYIRVVGFDNIKQCQILSFIVHKPSRY
notes: RbcS, RuBisCO small subunit, Anabaena sp; coding region amplified from genomic DNA; plasmid pET19-Flag-RbcS; A His-RbcS was also made (pET19-His-RbcS); the assembly-assay methods name Flag-RbcS; source: E. coli BL21 (DE3), purified (anti-FLAG M2 gel, Superdex 75); also in lysate (holoenzyme co-purification)
B3: RbcX from Anabaena sp. PCC 7120, co-expressed in the ternary complex (natural protein)
chain: MNLKQIAKDTAKTLQSYLTYQALMTVLAQLGETNPPLALWLHTFSVGKVQDGEAYVKELFREQPDLALRIMTVREHIAEEVAEFLPEMVRSGIQQANMEQRRQHLERMTHLSLSNPSPESEQQTISDTDWDH
notes: RbcX, RuBisCO chaperone, Anabaena sp; coding region amplified from genomic DNA; plasmid pCDFduet-GroEL-GroES-RbcX-Raf1; No tag is named for this RbcX in the plasmid name; also called RbcX2 (dimer); source: E. coli BL21 (DE3), co-expressed with His-RbcL, Raf1 and GroEL-GroES, co-purified (Ni-NTA, gel filtration)

Assays:
[1] = biological target: the molecule itself; test: cryo-EM structure; RbcL–Raf1–RbcX ternary complex co-expressed in E. coli with GroEL-GroES, purified by Ni-NTA and gel filtration in 50 mM Tris-HCl pH 8.0, 20 mM NaCl, 5 mM MgCl2; ~2 mg/mL; D4 symmetry; 3.3 Å
[2] = biological target: T1, Anabaena sp. PCC 7120 RbcL-Raf1 complex (RbcL8Raf1_(8)) (Anabaena sp. PCC 7120, UniProt P00879 1-476; Q8YLP6 1-361); test: native gel or EMSA; RuBisCO assembly assays: 0.5 µM L8F8 or L8F8X16 mixed with Flag-RbcS (0-10-fold to RbcL), with or without pre-incubation with 8 µM RbcX or RbcX^E32A&R69A or RbcX2 at 0-1 fold to RbcL; 25 °C, 20 mM Tris-HCl pH 8.0, 300 mM NaCl, 5 mM MgCl2, 5% glycerol; ~0.5 h; 6% native-PAGE, bands analysed by SDS-PAGE; conditions: both partners purified
T1 construct: RbcL, Anabaena sp; as m1; plasmid pET19-His-RbcL–Raf1; Raf1, Anabaena sp; as m2; The preparation holds L8F8 and a fraction of L2F2 on native-PAGE; also called L8F8; L2F2 (smaller form in the same preparation); copies: 8 + 8
T1 sequence (Q8YLP6 whole entry, one chain of several): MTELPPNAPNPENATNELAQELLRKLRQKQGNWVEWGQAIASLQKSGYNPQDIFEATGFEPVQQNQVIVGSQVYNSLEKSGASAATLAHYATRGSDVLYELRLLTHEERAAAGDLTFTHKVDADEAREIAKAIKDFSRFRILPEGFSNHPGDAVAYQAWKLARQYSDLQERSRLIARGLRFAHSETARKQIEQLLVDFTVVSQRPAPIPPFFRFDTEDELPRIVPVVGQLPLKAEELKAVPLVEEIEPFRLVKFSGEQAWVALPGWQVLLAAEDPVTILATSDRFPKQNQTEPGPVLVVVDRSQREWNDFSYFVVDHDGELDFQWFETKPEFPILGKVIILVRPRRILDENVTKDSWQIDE

Row | Binder | stoichiometry N [1] | binding result [2]
1 | B1 | 8 | –
2 | B2 | – | binds
3 | B3 | 2 | –
